Reference: patent US20080015165A1, “NOVEL POLYPEPTIDE” (KYOWA HAKKO KOGYO CO., LTD., priority 1998, published 2008)

Test: Enzyme activity for a poly-N-acetyllactosamine sugar chain, Namalwa cell extract, HPLC
Assay type: biochemical
Conditions: substrate S; for Production (%) P1 / Production (%) P2 / Production (%) P3: relative value, total of products P1, P2 and P3 by each enzyme = 100%
From the text: Using a poly-N-acetyllactosamine sugar chain, it was examined that to which GlcNAc in the sugar chains, human Fuc-TIX and 5 types of human α1,3-fucosyltransferase (Fuc-TIII, Fuc-TIV, Fuc-TV, Fuc-TVI, and Fuc-TVII) that had been cloned so far transferred fucose.
Control plasmid (pAMo) and the human Fuc-TIX expression plasmid pAMo-FT9 were introduced into Namalwa cells according to the method shown in Example 1 (3), thereby obtaining stable transformants.
Namalwa cells expressing each of the other 5 types of human α1,3-fucosyltransferases (Fuc-TIII, Fuc-TIV, Fuc-TV, Fuc-TVI, and Fuc-TVII) were obtained according to the previous report (Glycoconjugate J., 13, 802-812, Biochem. Biophys. Res. Commun., 237, 131-137, 1997).
The resultant transformants (about 1×10^7) were collected in microtubes (1.5 ml, manufactured by Eppendolf), followed by centrifugation at 550×g for 7 minutes to collect the cells.
The collected cells were washed with 0.9 ml of PBS. The washed cells were suspended in 100 μl of a solution which consisted of 20 mM HEPES (pH 7.2) and 1% TrironX-100, then allowed to stand at 4° C. for 10 minutes. Subsequently the cells were disrupted using a ultrasonicator (Bioruptor; manufactured by COSMO BIO CO., LTD.)
After disruption of the cells, each supernatant was obtained by centrifugation at 550×g for 7 minutes and used as an enzyme sample. A poly-N-acetyllactosamine sugar chain (Galβ1-4GlcNAcβ1-3Galβ1-4GlcNAcβ1-3Galβ1-4GlcNAc) consisting of 6 sugars was fluorescently labeled with 2-aminobenzamide to make a sugar chain (Galβ1-4GlcNAcβ1-3Galβ1-4GlcNAcβ1-3Galβ1-4GlcNAc-2AB: abbreviated as S in FIGS. 13 and 15, and table 3), which was used as a substrate
Florescent labeling was performed using a Signal™ 2-AB glycan labeling kit (manufactured by Oxford GlycoScience). A poly-N-acetyllactosamine sugar chain (Galβ1-4GlcNAcβ1-3Galβ1-4GlcNAcβ1-3Galβ1-4GlcNAc) was prepared according to WO98/03524.
Samples were allowed to react in 20 μl of an assay solution [50 mM cacodylate (pH 6.8), 5 mM ATP, 10 mM L-fucose, 75 μM […] (manufactured by SIGMA), 25 mM MnCl2, 15 μM fluorescently labeled sugar chain substrate, 6 μl of the cell lysate above] at 37° C. for 2 hours, followed by treatment at 100° C. for 3 minutes to stop the reaction. Next 200 μl of water was added to the samples, and the supernatant was obtained by centrifugation at 10,000×g for 5 minutes. Using an aliquot of the supernatant (10 μl), products were analyzed by HPLC under the following conditions.
HPLC: • Column—TSK-gel ODS-80TsQA column (4.6×250 mm; TOSOH CORPORATION) • Eluate—0.02 M ammonium acetate (pH 4.0) containing 7% methanol • Elution temperature—50° C. • Flow rate—1.0 ml/min. • Detection—Fluorescence spectrum photometer FB-920 (manufactured by JASCO Corporation) (excitation wavelength: 330 nm, radiation wavelength: 420 nm)

B1: Fuc-TVII: known human α1,3-fucosyltransferase, previously cloned, expressed in Namalwa cells (protein, UniProt Q11130 1-342, looked up)
Alpha-(1,3)-fucosyltransferase …: MNNAGHGPTRRLRGLGVLAGVALLAALWLLWLLGSAPRGTPAPQPTITILVWHWPFTDQPPELPSDTCTRYGIARCHLSANRSLLASADAVVFHHRELQTRRSHLPLAQRPRGQPWVWASMESPSHTHGLSHLRGIFNWVLSYRRDSDIFVPYGRLEPHWGPSPPLPAKSRVAAWVVSNFQERQLRARLYRQLAPHLRVDVFGRANGRPLCASCLVPTVAQYRFYLSFENSQHRDYITEKFWRNALVAGTVPVVLGPPRATYEAFVPADAFVHVDDFGSARELAAFLTGMNESRYQRFFAWRDRLRVRLFTDWRERFCAICDRYPHLPRSQVYEDLEGWFQA
For B1, which major product (extract of Namalwa cells expressing the enzyme) is on record?
Its major product is “no product”.

What about the “Production (%) P1” value of the same molecule?
Its value is 0.0%.

And the “Production (%) P2” value?
The value was 0.0%.

What about the “Production (%) P3” value of the same molecule?
Its value is 0.0%.

B2: Human Fuc-TVI: known human α1,3-fucosyltransferase, previously cloned, used for comparison (protein, UniProt P51993 1-359, looked up)
4-galactosyl-N-acetylglucosami …: MDPLGPAKPQWSWRCCLTTLLFQLLMAVCFFSYLRVSQDDPTVYPNGSRFPDSTGTPAHSIPLILLWTWPFNKPIALPRCSEMVPGTADCNITADRKVYPQADAVIVHHREVMYNPSAQLPRSPRRQGQRWIWFSMESPSHCWQLKAMDGYFNLTMSYRSDSDIFTPYGWLEPWSGQPAHPPLNLSAKTELVAWAVSNWGPNSARVRYYQSLQAHLKVDVYGRSHKPLPQGTMMETLSRYKFYLAFENSLHPDYITEKLWRNALEAWAVPVVLGPSRSNYERFLPPDAFIHVDDFQSPKDLARYLQELDKDHARYLSYFRWRETLRPRSFSWALAFCKACWKLQEESRYQTRGIAAWFT
What does the source list for B2?
Production (%) P1: 8.3%; Production (%) P2: 88.7%; Production (%) P3: 3.0%

B3: Fuc-TV: known human α1,3-fucosyltransferase, previously cloned, expressed in Namalwa cells (protein, UniProt Q11128 1-374, looked up)
4-galactosyl-N-acetylglucosami …: MDPLGPAKPQWLWRRCLAGLLFQLLVAVCFFSYLRVSRDDATGSPRPGLMAVEPVTGAPNGSRCQDSMATPAHPTLLILLWTWPFNTPVALPRCSEMVPGAADCNITADSSVYPQADAVIVHHWDIMYNPSANLPPPTRPQGQRWIWFSMESPSNCRHLEALDGYFNLTMSYRSDSDIFTPYGWLEPWSGQPAHPPLNLSAKTELVAWAVSNWKPDSARVRYYQSLQAHLKVDVYGRSHKPLPKGTMMETLSRYKFYLAFENSLHPDYITEKLWRNALEAWAVPVVLGPSRSNYERFLPPDAFIHVDDFQSPKDLARYLQELDKDHARYLSYFHWRETLRPRSFSWALAFCKACWKLQQESRYQTVRSIAAWFT
With B3 as the molecule, how does the “Production (%) P1” value read?
The value was 7.5%.

What about the “Production (%) P2” value of the same molecule?
Its value is 92.5%.

And the “Production (%) P3” value?
Its value is 0.0%.

B4: Human Fuc-TIII: known human α1,3-fucosyltransferase, previously cloned, used for comparison (protein, UniProt P21217 1-361, looked up)
3-galactosyl-N-acetylglucosami …: MDPLGAAKPQWPWRRCLAALLFQLLVAVCFFSYLRVSRDDATGSPRAPSGSSRQDTTPTRPTLLILLRTWPFHIPVALSRCSEMVPGTADCHITADRKVYPQADMVIVHHWDIMSNPKSRLPPSPRPQGQRWIWFNLEPPPNCQHLEALDRYFNLTMSYRSDSDIFTPYGWLEPWSGQPAHPPLNLSAKTELVAWAVSNWKPDSARVRYYQSLQAHLKVDVYGRSHKPLPKGTMMETLSRYKFYLAFENSLHPDYITEKLWRNALEAWAVPVVLGPSRSNYERFLPPDAFIHVDDFQSPKDLARYLQELDKDHARYLSYFRWRETLRPRSFSWALDFCKACWKLQQESRYQTVRSIAAWFT
Which “Production (%) P1” value does the source give for B4 here?
The value was 2.0%.

What about the “Production (%) P2” value of the same molecule?
The value was 98.0%.

What about the “Production (%) P3” value of the same molecule?
Its value is 0.0%.
